The values that follow come from FireProtDB (doi:10.1073/pnas.0804396105).

First the molecules themselves.
B1: Adenosine receptor A2a, P29274 (parent)
chain: MPIMGSSVYITVELAIAVLAILGNVLVCWAVWLNSNLQNVTNYFVVSLAAADIAVGVLAIPFAITISTGFCAACHGCLFIACFVLVLTQSSIFSLLAIAIDRYIAIRIPLRYNGLVTGTRAKGIIAICWVLSFAIGLTPMLGWNNCGQPKEGKNHSQGCGEGQVACLFEDVVPMNYMVYFNFFACVLVPLLLMLGVYLRIFLAARRQLKQMESQPLPGERARSTLQKEVHAAKSLAIIVGLFALCWLPLHIINCFTFFCPDCSHAPLWLMYLAIVLSHTNSVVNPFIYAYRIREFRQTFRKIIRSHVLRQQEPFKAAGTSARVLAAHGSDGEQVSLRLNGHPPGVWANGSAPHPERRPNGYALGLVSGGSAQESQGNTGLPDVELLSHELKGVCPEPPGLDDPLAQDGAGVS

This data set covers variants of B1. The settings on record: Homo sapiens; pH 7.4; Thermal; Activity; Tris 50 mM; NaCl 0.4 M; structure 4UHR; whole UniProt chain shown.

Where “and” joins values, the source holds several entries; their conditions need not be identical. Identical values can stand only once.

One may read the Tm as the temperature at the midpoint of the melting transition. In the case of MPIMGSSVYITVELAIAVLAILGNVLVCWAVWLNSNLQNVTNYFVVSLAAADILVGVLAIPFAITISTGFCAACAGCLFIACFVLVLAQSSIFSLLAIAIDRYIAIRIPLRYNGLVTGTRAKGIIAICWVLSFAIGLTPMLGWNNCGQPKEGKNHSQGCGEGQVACLFEDVVPMNYMVYFNFFACVLVPLLLMLGVYLRIFLAARRQLKQMESQPLPGERARSTLQKEVHAAKSLAIIAGLFALCWLPLHIINCFTFFCPDCSHAPLWLMYLAIVLSHTNSVVNPFIYAYRIREFRQTFRKIIRSHVLRQQEPFKAAGTSARVLAAHGSDGEQVSLRLNGHPPGVWANGSAPHPERRPNGYALGLVSGGSAQESQGNTGLPDVELLSHELKGVCPEPPGLDDPLAQDGAGVS [A54L H75A T88A V239A], the Tm was 40 °C and 44 °C; the “change of melting temperature, mutant - wild type (higher = more stable)” value (shortened to “change of melting temperature, mutant”) was 9 °C and 12 °C. On to MPIMGSSVYITVELAIAVLAILGNVLVCWAVWLNSNLQNVTNYFVVSLAAADILVGALAIPFAITISTGFCAACHGCLFIACFVLVLTQSSIFSLLAIAIDRYIAIRIPLRYNGLVTGTRAKGIIAICWVLSFAIGLTPMLGWNNCGQPKEGKNHSQGCGEGQVACLFEDVVPMNYMVYFNFFACVLVPLLLMLGVYLRIFLAARRQLKQMESQPLPGERARSTLQKEVHAAKSLAIIVGLFALCWLPLHIINCFTFFCPDCSHAPLWLMYLAIVLSHTNSVVNPFIYAYRIREFRQTFRKIIRSHVLRQQEPFKAAGTSARVLAAHGSDGEQVSLRLNGHPPGVWANGSAPHPERRPNGYALGLVSGGSAQESQGNTGLPDVELLSHELKGVCPEPPGLDDPLAQDGAGVS [A54L V57A], for which the Tm worked out at 31 °C and the “change of melting temperature, mutant” value was determined as 0 °C.

Take MPIMGSSVYITVELAIAVLAILGNVLVCWAVWLNSNLQNVTNYFVVSLAAADIAVGVLAIPFAITISTGFCAACHGCLFIACFVLVLTQSSIFSLLAIAIDRYIAIRIPLRYNGLVTGTRAAGIIAICWVLSFAIGLTPMLGWNNCGQPKEGKNHSQGCGEGQVACLFEDVVPMNYMVYFNFFACVLVPLLLMLGVYLRIFLAARRQLKQMESQPLPGERARSTLQKEVHAAKSAAIIVGLFALCWLPLHIINCFTFFCPDCSHAPLWLMYLAIVLSHTNSVVNPFIYAYRIREFRQTFRKIIRSHVLRQQEPFKAAGTSARVLAAHGSDGEQVSLRLNGHPPGVWANGSAPHPERRPNGYALGLVSGGSAQESQGNTGLPDVELLSHELKGVCPEPPGLDDPLAQDGAGVS [K122A L235A]: the Tm is 37 °C and the “change of melting temperature, mutant” value turned out to be 6 °C. For MPIMGSSVYITVELAIAVLAILGNVLVCWAVWLNSNLQNVTNYFVVSLAAADIAVGVLAIPFAITISTGFCAACHGCLFIACFVLVLTQSSIFSLLAIAIDRYIAIRIPLRYNGLVTGTRAKGIIAICWVLSFAIGLTPMLGWNNCGQPKEGKNHSQGCGEGQVACLFEDVVPMNYMVYFNFFLCVLVPLLLMLGVYLRIFLLARRQLKQMESQPLPGERARSTLQKEVHAAKSLAIIVGLFALCWLPLHIINCFTFFCPDCSHAPLWLMYLAIVLSHTNSVVNPFIYAYRIREFRQTFRKIIRSHVLRQQEPFKAAGTSARVLAAHGSDGEQVSLRLNGHPPGVWANGSAPHPERRPNGYALGLVSGGSAQESQGNTGLPDVELLSHELKGVCPEPPGLDDPLAQDGAGVS [A184L A203L], in that order: 30 °C and 10 °C. Take MPIMGSSVYITVELAIAVLAILGNVLVCWAVWLNSNLQNVTNYFVVSLAAADIAVGVLAIPFAITISTGFCAACHGCLFIACFVLVLTQSSIFSLLAIAIDRYIAIRIPLRYNGLVTGTRAKGIIAICWVLSFAIGLTPMLGWNNCGQPKEGKNHSQGCGEGQVACLFEDVVPMNYMVYFNFFACVLVPLLLMLGVYLRIFLAARRQLKQMESQPLPGERARSTLQKEVHAAKSLAIIVGLFALCWLPLHIINCFTFFCADCSHAPAWLMYLAIVLSHTNSVVNPFIYAYRIREFRQTFRKIIRSHVLRQQEPFKAAGTSARVLAAHGSDGEQVSLRLNGHPPGVWANGSAPHPERRPNGYALGLVSGGSAQESQGNTGLPDVELLSHELKGVCPEPPGLDDPLAQDGAGVS [P260A L267A]: the Tm was 31 °C and 30 °C. On to MPIMGSSVYITVELAIAVLAILGNVLVCWAVWLNSNLQNVTNYFVVSLAAADILVGVLAIPFAITISTGFCAACHGCLFIACFVLVLTQSSIFSLLAIAIDRYIAIRIPLRYNGLVTGTRAKGIIAICWVLSFAIGLTPMLGWNNCGQPKEGKNHSQGCGEGQVACLFEDVVPMNYMVYFNFFACVLVPLLLMLGVYLRIFLAARRQLKQMESQPLPGERARSTLQKEVHAAKSAAIIVGLFALCWLPLHIINCFTFFCPDCSHAPLWLMYLAIVLSHTNSVVNPFIYAYRIREFRQTFRKIIRSHVLRQQEPFKAAGTSARVLAAHGSDGEQVSLRLNGHPPGVWANGSAPHPERRPNGYALGLVSGGSAQESQGNTGLPDVELLSHELKGVCPEPPGLDDPLAQDGAGVS [A54L L235A], for which the midpoint of thermal melting (Tm) was 42 °C and 45 °C; the “change of melting temperature, mutant” value was 11 °C and 13 °C. In the case of MPIMGSSVYITVELAIAVLAILGNVLVCWAVWLNSNLQNVTNYFVVSLAAADIAVGVLAIPFAITISTGFCAACHGCLFIACFVLVLTQSSIFSLLAIAIDRYIAIRIPLRYNGLVTGTRAKGIIAICWVLSFAIGLTPMLGWNNCGQPKEGKNHSQGCGEGQVACLFEDVVPMNYMVYFNFFACVLVPLLLMLGVYLRIFLAARRQLKQMESQPLPGERARSTLQKEVHAAKSLAIIVGLFALCWLPLHIINCFTFFCPDCSHAPLWLMYLAIVLSHANSVVAPFIYAYRIREFRQTFRKIIRSHVLRQQEPFKAAGTSARVLAAHGSDGEQVSLRLNGHPPGVWANGSAPHPERRPNGYALGLVSGGSAQESQGNTGLPDVELLSHELKGVCPEPPGLDDPLAQDGAGVS [T279A N284A], the Tm was 29 °C and the “change of melting temperature, mutant” value was determined as 9 °C. In the case of MPIMGSSVYITVELAIAVLAILGNVLVCWAVWLNSNLQNVTNYFVVSLAAADILVGVLAIPFAITISTGFCAACHGCLFIACFVLVLTQSSIFSLLAIAIDRYIAIRIPLRYNGLVTGTRAKGIIAICWVLSFAIGLTPMLGWNNCGQPKEGKNHSQGCGEGQVACLFEDVVPMNYMVYFNFFACVLVPLLLMLGVYLRIFLAARRQLKQMESQPLPGERARSTLQKEVHAAKSLAIIAGLFALCWLPLHIINCFTFFCPDCSHAPLWLMYLAIVLSHTNSVVNPFIYAYRIREFRQTFRKIIRSHVLRQQEPFKAAGTSARVLAAHGSDGEQVSLRLNGHPPGVWANGSAPHPERRPNGYALGLVSGGSAQESQGNTGLPDVELLSHELKGVCPEPPGLDDPLAQDGAGVS [A54L V239A], the Tm is 40 °C and 42 °C; the “change of melting temperature, mutant” value is 9 °C and 10 °C.
